We go through ten molecules from US20200407445A1 (ITEOS THERAPEUTICS, published 2020).

For orientation: Kd means the concentration at which binding is half-saturated. What is called koff is the rate constant with which the complex falls apart. For orientation: EC50 means the concentration giving half of the maximal effect. High values mean a less potent agent, low ones a more potent agent. The IC50 is the concentration that inhibits the measured activity by half. The low end stands for greater potency, the high end for weaker potency.

The target of one experiment is T1, Mouse TIGIT-Fc (mouse, UniProt P86176 29-148, limits assumed).
T1 construct: not shown: Fc part
T1 sequence (looked up): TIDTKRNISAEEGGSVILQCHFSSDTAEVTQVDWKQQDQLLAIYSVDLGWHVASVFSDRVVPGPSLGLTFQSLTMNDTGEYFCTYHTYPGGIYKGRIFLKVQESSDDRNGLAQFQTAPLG
Nature of the experiment: ForteBio BLI, Fab KD, monovalent. Background: Biolayer interferometry detects binding as a change in optical thickness at a sensor tip.

The next experiment has as its target T2, Human TIGIT-His (human, UniProt Q495A1 22-141, biotinylated in the ForteBio Fab assay).
T2 construct: bought (Creative Biomart); also called Biotinylated Human TIGIT HIS; TIGIT-His monomer; not shown: His tag
T2 sequence (looked up): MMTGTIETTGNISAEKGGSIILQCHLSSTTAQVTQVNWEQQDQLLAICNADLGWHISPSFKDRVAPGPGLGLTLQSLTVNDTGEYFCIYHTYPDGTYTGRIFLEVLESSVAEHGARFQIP
Nature of the experiment: ForteBio BLI, Fab KD, monovalent.

The next experiment addresses T3, Cyno TIGIT-Fc (cynomolgus, UniProt A0A7N9I9V4 89-209).
T3 construct: not shown: Fc part
Put plainly: ForteBio BLI, Fab KD, monovalent.

Experiment [1] addresses T4, recombinant human TIGIT protein (construct not stated) (human, UniProt Q495A1 22-141, limits assumed).
T4 construct: also called hTIGIT (Creative Biomart); recombinant TIGIT protein
T4 sequence (looked up): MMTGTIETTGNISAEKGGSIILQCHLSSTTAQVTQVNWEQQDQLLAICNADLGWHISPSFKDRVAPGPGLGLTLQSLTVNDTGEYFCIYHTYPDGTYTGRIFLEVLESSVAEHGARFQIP
Put plainly: Biacore T200, IgG captured by anti-human Fc, antigen in solution, 1:1 kinetic model. The protocol: Biosensor analysis was conducted at 25° C. in a HBS-EP buffer system (10 mM HEPES pH 7.3, 150 mM NaCl, 3 mM EDTA, 0.05% Tween20) using Biacore T200 technology, CMS sensor chip (run at Novalix, France). The sample hotel was maintained at 8° C. Goat anti-human IgG capture antibody (Fcγ fragment specific, Jackson ImmunoResearch Laboratories) was immobilized (10000 RU) to both flow cells of the sensor chip using standard amine coupling chemistry. This surface type provided a format for reproducibly capturing fresh analysis antibody after each regeneration step. Flow cell 2 was used to analyse captured antibody while flow cell 1 was used as a reference flow cell. […] Two blank (buffer) injections also were run and used to assess and subtract system artefacts. The association (300 s) and dissociation (600 s) phases for all antigen concentrations were performed at a flow rate of 30 uL/min. The surface was regenerated with three sequential injections (15 s, 15 s and 60 s) of 10 mM glycine-HCl, pH 1.5. The obtained sensorgrams were fitted globally to a 1:1 model (assuming the same kinetic values for all applied concentrations).

Experiment [2] addresses T5, human TIGIT expressed on cells (human, UniProt Q495A1 22-244).
T5 construct: whole, on cells; on Jurkat E6.1 cells transduced with human TIGIT, on Promega TIGIT Effector cells or on human primary T cells; the assay field says which; also called hTIGIT; Jurkat-hTIGIT
T5 sequence (looked up): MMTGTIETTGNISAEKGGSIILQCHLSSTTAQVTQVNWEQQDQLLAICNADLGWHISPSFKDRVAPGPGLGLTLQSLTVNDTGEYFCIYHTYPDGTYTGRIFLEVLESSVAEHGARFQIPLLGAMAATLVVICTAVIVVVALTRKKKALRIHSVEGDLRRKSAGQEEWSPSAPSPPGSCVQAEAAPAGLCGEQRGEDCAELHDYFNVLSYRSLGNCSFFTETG
Put plainly: flow cytometry, primary CD8+ T cells of healthy human PBMC, MFI. As to the method:
Isolated human PBMCs from healthy volunteers were analysed for binding by antagonist anti-TIGIT antibodies. Cells were distributed at 1×10⁵ cells per well. Cells were incubated with anti-CD16 (Clone 3G8, BioLegend 302002), CD32 (Clone FLI8.26, BD Bioscience 557333) and CD64 (BD Bioscience 555525) at room temperature for 10 min, and the indicated anti-human TIGIT antibody clones were directly added at a final concentration of 8; 4; 2; 1; 0.5; 0.25; 0.125; 0.062; 0.031; 0.016; 8×10⁻³ and 4×10⁻³ nM in FACS buffer and incubated for 20 min at 4° C. […] Then, cells were washed and incubated with the following antibodies and LVD mix: anti-CD4-PercP-Cy5.5 (clone A161A1, BioLegend 357414); anti-CD8-BV510 (clone SK1, BD Bioscience 563919) and LVD efluor 660 (eBioscience 65-0864-18).
The EC50 values for binding to CD8+ human primary T cells were calculated using the MFI signal on living TIGIT+CD8+ T cells.
For orientation: Flow cytometry measures light scatter and fluorescence of single cells or particles in a stream.

The target of experiment [3] is T5, human TIGIT expressed on cells. Put plainly: flow cytometry on Jurkat-hTIGIT. As to the method:
Antibodies were incubated with the cells for 20 min at 4° C. in FACS buffer. […] Fluorescence intensity was analysed using LSR BD Fortessa and cell binding was recorded as the median fluorescence intensity of PE in cells expressing TIGIT at their surface.
The half-maximal concentration of binding (EC50) to Jurkat-hTIGIT was calculated using a four-variable curve-fit equation in Prism.

For experiment [4] the target is unchanged. Nature of the experiment: flow cytometry, primary CD8+ T cells of cancer patients' PBMC, MFI. As to the method: Cells were distributed at 1×10^5 cells per well. […] Then, cells were washed and incubated with the following antibodies and life viability dye (LVD) mix: anti-CD4-PercP-Cy5.5 (clone A161A1, BioLegend 357414); anti-CD8-BV510 (clone SK1, BD Bioscience 563919) and LVD efluor 520 (eBioscience 65-0867-14). Cells were washed and fixed and surface staining was quantified using BD LSR Fortessa. Flow cytometry data was analysed using FlowJo V10.1. TIGIT MFI on gated LVD-TIGIT+CD8+ cells was used to calculate EC50 values.

For experiment [5] the target is unchanged. Put plainly: flow cytometry, competition with CD155-His (15 ug/ml) on Jurkat-hTIGIT.

T3 sequence (A0A7N9I9V4 entry or part of it): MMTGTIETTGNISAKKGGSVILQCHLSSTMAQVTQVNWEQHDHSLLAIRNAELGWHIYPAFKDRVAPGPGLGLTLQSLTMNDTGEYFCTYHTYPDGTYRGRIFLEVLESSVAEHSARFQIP

B1: Fab of anti-TIGIT clone 29494 (Fab, V domains shown)
VH: QVQLQESGPGLVKPSETLSLTCTVSGGSISSGSYYLAWIRQPPGKGLEWIGSIFRSGSTYYNPSLESRVTISVDTSKNQFSLKLSSVTAADTAVYYCAIEGANFKDFGYVAFDIWGQGTMVTVSS
VL: EIVMTQSPATLSVSPGERATLSCRASQSVSSNLAWYQQKPGQAPRLLIYGASTRATGIPARFSGSGSGTEFTLTISSLQSEDFAVYYCQQSPPWPRTFGGGTKVEIK
B1: the results for the dissociation constant Kd in the experiment with Mouse TIGIT-Fc, in the experiment with Human TIGIT-His and in the experiment with Cyno TIGIT-Fc were 53.6 nM, 1.66 nM and 18.6 nM, respectively.

B2: Fab of anti-TIGIT clone 29499 (Fab, V domains shown)
VH: QLQLQESGPGLVKPSETLSLTCTVSGGSISSSRYYWAWIRQPPGKGLEWIGSIGTSGSTYYNPSLKSRVTISVDTSKNQFSLKLSSVTATDTAVYYCAIEGANFRDFGYVAFDIWGQGTMVTVSS
VL: EIVMTQSPATLSVSPGERATLSCRASQSVSSNLAWYQQKPGQAPRLLIYGASTRATGIPARFSGSGSGTEFTLTISSLQSEDFAVYYCQQSPPWPRTFGGGTKVEIK
As to B2, the results for the Kd with Mouse TIGIT-Fc, in the experiment with Human TIGIT-His and with Cyno TIGIT-Fc were 25.5 nM, 1.66 nM and 14.5 nM, respectively.

B3: Fab of anti-TIGIT clone 29513 (Fab, V domains shown)
VH: QVQLVQSGAEVKKPGSSVKVSCKASGGTFQNYAISWVRQAPGQGLEWMGVIVPIFGTANYAQKFQGRVTVTADESTSTAYMELSSLRSEDTAVYYCARLHLGQKAYYGMDVWGQGTTVTVSS
VL: DIQMTQSPSSLSASVGDRVTITCRASQSISSYLNWYQQKPGKAPKLLIYAASSLQSGVPSRFSGSGSGTDFTLTISSLQPEDFATYYCQQRYVFPPTFGGGTKVEIK
With B3, the Kd with Mouse TIGIT-Fc was 85.5 nM; with Human TIGIT-His it was 0.774 nM; with Cyno TIGIT-Fc, 9.56 nM.

B4: Fab of anti-TIGIT clone 29523 (Fab, V domains shown)
VH: EVQLVESGGGVVQPGRSLRLSCAASGFTFGSYYMHWVRQAPGKGLEWVAVIWPDGSNKLYADSVKGRFTISRDNSKNTLYLQMNSLRAEDTALYYCAKPVPKSRALDVWGQGTMVTVSS
VL: DIQLTQSPSSVSASVGDRVTITCRASQGISSWLAWYQQKPGKAPKLLIYGASSLQSGVPSRFSGSGSGTDFTLTISSLQPEDFATYYCQQAFYLPWTFGGGTKVEIK
Consider B4, for which the Kd with Mouse TIGIT-Fc is 18.9 nM; in the experiment with Human TIGIT-His it was 3.84 nM; with Cyno TIGIT-Fc it was 27.9 nM.

B5: Fab of anti-TIGIT clone 29520 (Fab, V domains shown)
VH: QVQLVESGGGLVQPGRSLRLSCAASGFTFRDYAMHWVRQAPGKGLEWVSGITWNSGLIGYADSVKGRFTISRDNAKNSLYLQMNSLRAEDTALYYCAKPVPRLRGLDVWGQGTMVTVSS
VL: DIQLTQSPSSVSASVGDRVTITCRASQGISSWLAWYQQKPGKAPKLLIYGASSLQSGVPSRFSGSGSGTDFTLTISSLQPEDFATYYCQQAFYLPWTFGGGTKVEIK
For the molecule B5, the values for the Kd in the experiment with Mouse TIGIT-Fc, in the experiment with Human TIGIT-His and with Cyno TIGIT-Fc were 1.95 nM, 1.31 nM and 2.68 nM, respectively.

B6: Fab of anti-TIGIT clone 26493 (Fab, V domains shown)
VH: EVQLVESGGGLVQPGRSLRLSCAASGFTFGDYAMHWVRQAPGKGLEWVSGITWNSGSIGYADSVKGRFTISRDNAKNSLYLQMNSLRAEDTALYYCAKPVPKSRGLDVWGQGTMVTVSS
VL: DIQLTQSPSSVSASVGDRVTITCRASQGISSWLAWYQQKPGKAPKLLIYGASSLQSGVPSRFSGSGSGTDFTLTISSLQPEDFATYYCQQAFYLPWTFGGGTKVEIK
Take B6: the Kd amounted to 26.7 nM with Mouse TIGIT-Fc and 40.6 nM with Human TIGIT-His. Also, the binding result with Cyno TIGIT-Fc is listed as “no binding”.

B7: Fab of anti-TIGIT clone 29527 (Fab, V domains shown)
VH: QVQLVESGGGVVQPGRSLRLSCAASGFTFSSSYMHWVRQAPGKGLEWVAVIGADGSNKYYADSVEGRFTISRDNSKNTLYLQMNSLRAEDTALYYCAKPVPRRRGLDVWGQGTMVTVSS
VL: DIQLTQSPSSVSASVGDRVTITCRASQGISSWLAWYQQKPGKAPKLLIYGASSLQSGVPSRFSGSGSGTDFTLTISSLQPEDFATYYCQQAFYLPWTFGGGTKVEIK
For the molecule B7, the values for the dissociation constant Kd with Mouse TIGIT-Fc, with Human TIGIT-His and with Cyno TIGIT-Fc were 20.2 nM, 1.33 nM and 17.6 nM, respectively.

B8: TIG1 (comparative anti-TIGIT antibody, human IgG1) (antibody, V domains shown)
VH: DVQLVESGGGLVQPGGSRKLSCAASGFTFSNFGMHWVRQAPEKGLEWVAFISSGSSSIYYADTVKGRFTISRDNPKNTLFLQMTSLRSEDTAMYYCARMRLDYYAMDYWGQGTSVTVSS
VL: DVQITQSPSYLAASPGETITINCRASKSISKYLAWYQEKPGKTNKLLIYSGSTLQSGIPSRFSGSGSGTDFTLTISSLEPEDFAMYYCQQHNEYPWTFGGGTKLEIK
notes: from WO2017/152088; made in HEK cells as human IgG1
For B8, in experiment [1], the Kd amounted to 2.49 nM and the koff is 0.0131 s⁻¹. Further, in experiment [2], the EC50 amounted to 0.38 nM and the “Fold change of EC50 over EC50 of best clone (31282_wu)” value was found to be 2 fold. Also, in experiment [3], the midpoint of the response, the EC50, lay at 0.17 nM and the “Fold change of EC50 over EC50 of best clone (31282_wu)” value is 1.6 fold. In experiment [4], the 50% effective concentration (EC50) was 0.33 nM and the “Fold change of EC50 over EC50 of best clone (31282)” value came out at 2.7 fold. Also, in experiment [5], the “Fold change of IC50 over IC50 of best clone (31282_up)” value was 1.6 fold and the IC50 came to 0.06 nM.

B9: Fab of anti-TIGIT clone 26432 (Fab, V domains shown)
VH: QVQLVQSGAEVKKPGSSVKVSCKASGGTFSSYAISWVRQAPGQGLEWMGGIIPIFGTANYAQKFQGRVTITADESTSTAYMELSSLRSEDTAVYYCAREAQSYRVPFDIWGQGTMVTVSS
VL: EIVMTQSPATLSVSPGERATLSCRASQSVSSNLAWYQQKPGQAPRLLIYGASTRATGIPARFSGSGSGTEFTLTISSLQSEDFAVYYCQQYAIWPPFTFGGGTKVEIK
B9: the binding result with Mouse TIGIT-Fc and with Cyno TIGIT-Fc was “no binding” in each case. For the same molecule, in the experiment with Human TIGIT-His, binding was characterised by a dissociation constant (Kd) of 13.1 nM.

B10: Fab of anti-TIGIT clone 29478 (Fab, V domains shown)
VH: EVQLVESGGGVVQPGRSLRLSCAASGFTFESYGMVWVRQAPGKGLEWVASILYDGSNRYYADSVKGRFTVSRDNSKNTLYLQMNSLRAEDTAVYYCARVSYYYDSVELRWAEYFQHWGQGTLVTVSS
VL: EIVLTQSPATLSLSPGERATLSCRASQSVSSYLAWYQQKPGQAPRLLIYDASKRATGIPARFSGSGSGTDFTLTISSLEPEDFAVYYCQQVHNFPLTFGGGTKVEIK
In the case of B10, the equilibrium dissociation constant (Kd) with Mouse TIGIT-Fc is 91.8 nM; with Human TIGIT-His, 0.703 nM; with Cyno TIGIT-Fc it was 1.26 nM.
